Laboratory results taken from the DeepSol protein solubility set.

test: soluble on expression in E. coli; label from the status in PepcDB or PDB records

Soluble on expression in E. coli, not soluble:
MSLDAEKQLANITMGLPLSPAADSARSARHALSLIATARPPAFITTIAKEVHRHTALAANTQSQQSIHTTTLARAKGEILRVIEILIEKMPTDVVDLLVEVMDIIMYCLEGSLVKKKGLQECFPAICRFYMVSYYERSHRIAVGARHGSVALYDIRTGKCQTIHGHKGPITAVSFAPDGRYLATYSNTDSHISFWQMNTSLLGSIGMLNSAPQLRCIKTYQVPPVQPASPGSHNALKLARLIWTSNRNVILMAHDGKEHRFMVEGHHHHHH
MSLDAPRFHIEEIRFSERDVALRLPFRFGAATVTACPQVYVRARIRFENGGTAEGCAAEMMVPKWFDKNPALSNEQNFEQLRCALRAARAAYVAEDGAQTAWTHFASNYAALQARAKAKGLQALVASYGPALIDRAVMDALCLRSGTSFATAMRANLCGIDIAGSGLADDLAGFDMPAFLASQSPRASIAARHTVGLADAIDDSDALPDAPADGLPTTLAEAVKRYGLTHFKPKLCGNTAQDISRLERIARVIDGHAQLVTLDGNEQYADADDFAVFLDRMLSTPVLWKLAQKTVFVEQPIRRDAALQRSVSAPGKRIPLLIDESDATLDAFVQARALGYTGVSSKSCKGFYKSVVNAARCAHWNAAEDKPRYFLSGEDLTMQAGIGVQQDLALVGWLGLSHVERNGHHYVNGLAAVPEAEQQALLKLHPGLYEPGDGAVRLAIRGGQLPLAPLAAAPGFATGIPGAGISWDAMRSVYEGHHHHHH
MSLDDERTQVLLKRDSEVFLHQAMSTPCLDTLDAAEGIYIQDATGKKYMDFHGNNVHQLGYGHPHVIKRVQEQIAKLPFSPRRFTNETAIECAEKLTQICGGELNRVLFAPGGTSAVGMALKLARHITGNYKVVSLWDSFHGASLDAISVGGEACFRQGMGPLMAGVERIPPAVSYRGAFPVADGSDVHYADYLEYVIEKEGGVGAFIAEAVRNTDVQVPSKAYWKRIREICDKHNVMLIIDDIPNGMGRSGEWFTYQAYDIEPDMLCIGKGLGGGLVPIAAMVTKDKYNTAEQISMGHYTHEKSPIGCAAALATMEAIEQDGLLDKVKADSQFMREKLLEMKAKYPVIGDVRGIGMLWGIELVTDHESKARAYDEAEAVLYQCLNNGVSFKVSQGNVIQLSPPLIITREQLTEALAIFEEAIAKVCKEGHHHHHH
MSLDDLAQLANEVKASFVRLVNEDANSHMIGTAMSTIGRAFTQRIIELVEAELGAAPLPYCFVAFGSMGRDEQLIVTDQDNALILDDRYDVQQHGAYFAQFAELVCRGLDRCGYPLCDGEIMASNPKWRMTRKEWETCFADWIDNPNPQALLNASIFFDLDGVYGRTKWAEQLSGFIVRRARRNQRFLACLARNALNRTPPLGFFKNFVMEKDGRHNNSINLKRRGTAPLADLIRVHALAAGSRAKNSFERLDDVIEAGLLPQGKGKDLRDALEFIAMVRIRHQAIDVEQEGHHHHHH
MSLDEDAQISAVQDGFINFYADDAVTPYVALAARGPWVITLKGAVLYDAGGYGMLGFGHTPEAVLDAMARPQVMANVMTPSLAQRKLDRALRAEIGHTRGGCPFARFMCLNSGSEAVGLAARIVDTNAKLHTDPGARHAGATIKRLVVKGSFHGRTDRPGLYSDSSRKTYSKYLASYRDEDSVIAIAPYDIAALQRAFDEAARNHWFIEAVFLEPVMGEGDPGRALPAEFYAAARTLTRNHGSLLLVDSIQAGLRAHGVLSVVDYPGFEQLDPPDLETYSKALNAAQYPLSVLAVTEQAAQVYRKGTYGNTMTTNPRALDVACATLALFTPQIRDNIRLRGAQALRKLEALQAELGGLITKVQGTGLLFSCELAPQYKCYGAGSTEEWLRHHGVNVIHGGENSLRFTPHFGMDEAELDLLVGLIAKALKEGPRQAQAEAEGHHHHHH
MSLDFVIEMLGIRKEFSGFVANDNITLQLKQGEIHALLGENGAGKSTLMNVLFGLYEPDGGEIRVRGTKENINSPNKANELGIGMVHQHFMLVDKFTVAENIILGKEPSKLGVIEKKKAIEEIKEISDRYGLRVDPNAVVRDISIGMQQRVEILKTLYRGADILIFDEPTAVLTPQEIKELIQIMRSLIKEGKSIILITHKLKEIMDVCDRVTVIRRGKGMGTVNVPETTPQDLANLMVGREVVFTTEKIDAKPGKDVLEVKDLVVKESRGVESVRGLNLTVRAGEIVGIAGVDGNGQSELISAIAGLSKVTSGSILLNGEHIENKKPRKITEAGLGHIPEDRHKHGLVLEMSLGENIALQTYYKKPISSKGFLNHKAMYDFARELIEEYDVRASSEYVAAKSLSGGNQQKAIIAREIHRNPDFLIAAQPTRGLDVGAIEFIHRRLIEQRDNGKAVLLMSFELDEIMNVSDRIAVIYEGKIVAIVDPKETTEQELGLMMAGSSKQEAEMGEKEGHHHHHH
MSLDIQIQYSTDWKEEFLKRLEDGGPWSNWEMGKLAYEAANYQVIPEFHGLQAPKHLPQLQPFPHQMEVAQTVIEQMNGKAILADEVGLGKTIEAGLILKEYMIRGLAKKVLILVPASLVSQWAYELSSKFYIPAIPQKKAYVWEQYDVVVASIDTAKRQPHRDIVLNQHYDLVIIDEAHKLKNPKTKNYAFIKSLKRKYCLLLTATPVQNKLEEIFNLVSLLKPGHLGDLESFEKEYRANKRAPKNEDKLKELVNKVMVRNRREETGIEWTKRIVQTVPITFSEGERAFYHAITKLKQQPDVMTNSFSLLTLQREICSSREAAFMTLKNMITKLEQEGRTSPILESLIEQVGTIEGHAKAEKALELIQQINDKVIIFTEYRATQLYLQWYLKQHGISSVPFRGGFKRGKKDWMRQLFENRAQVLIATEAGGEGINLQFCHHIINYDLPWNPMRIEQRIGRIHRLGQTEDVRIYNFAVKDTIEEQILTLLYEKIQLFERVVGELDDILTKMNVGSIEEHIRDIFVHSDSEGEMKIKLDHLSAIMNDVANEKEEDHATGATASVSDALLEGHHHHHH
MSLDIRGMTVEEAEPVVKKFIDDLMMNGISKGYIIHGKGTGKLASGVWEILRKDKRVVSFRFGTPSEGGTGVTVVEVKEGHHHHHH
MSLDKIMNEAISPWMKGDGPDSDIVLSSRIRLARNFKQYQFSTMQNEEEAQKVQELFKKKFINKAVEPFGKFGLLKMNELTPLQRRVLVEKHLISPNLAGTEYGACLLSESEHISVMLNEEDHIRIQCLFPGLQLSKALQSANQIDNWIEKEVEYAFDESLGYITSCPTNVGTGLRASVMIHLPGLVLTKRISRIIQVIQKLGLVVRGIYGEGSEALGNIFQVSNQMTLGKSEEDIIADLKSVMQQIIQQEKLARELIVQNSSIELEDKVYRSYGILANSRLIQSAEAATCLSDVRLGIDLGYIKGISRNILTELMVLTQPGILQQYAGGPLGPEERDYRRATLIRERLRIEKN

Soluble on expression in E. coli, soluble:
MSLAVKILSVDDELDLEVLLTQYFRRQIRKGEYEFAFAHNGLEALQKLLETPDFDIILSDINMPEMDGLTLLAKVNELKNPAMKCIMVSAYGDMDNIRSAMNKGAFDFATKPIDLDDLSRTIEKAIEQVRYIRESQQEHNQLESIKNDLAIAGEIQQTILPRSFPPFPELTEVVNIYASMTPAKDVGGDFYDFFQIDDERIGLVIADVSGKGVPASLFMAVSRTLLRATALRGVSSAECLTYANKLLCKESLDSMFVTVFYGIYHYKTGMMDYTNAGHNPPYLLRGGRTVECLPVASNFVVGVFDDIEFESNTLTFGIGDTLLLYTDGVTEAFNDKREQFSESNLQDILASMHESSSAKEVVTSVLQSVKTFSGDYPQSDDITLLSLQRIKEGHHHHHH
MSLDAELVDWELAVTTAKKLVRPGPQRSRAEADEIVSELRRLAVVAEGHVQDYTQLVPAGPPTPIAVVDRPEWVRSNVAGLRVATMPLIEKLSDQSRGRLAAAVGRRVTGVQVGSALAYLAGKVLGQFEVFLPPEEYEAGSAASAPSLAKPGAPTPVGRLSLVAPNIAHAEETLRVVPRDFRLWVCLHEQTHRSQFTAVPWLREHLESEIAAFIGATDLDPDVLADRLRSAVTALRSAVRDHGPDTPSVVEALQTPAQRAVLDRLQALMSLLEGHADQVMDAVGPQVVPTVADIRGKFDNRRSGGSPIDRFLRRLLGLDLKMQQYRQGGAFVRAVVAEVGVEGFNHVWQSPRTLPTRPELTDPGAWMLRVLGTREGHHHHHH
MSLDDRSIRAEERSDKLMNLKIKNITCSIKKVPLKRPFITALHKVTEIEGLKIVVELSDGQTGTGTATPNEKVTGDTLQSSLDIVNQVIKPALINQDFKNWNKLLTTLQTCIVHNTAAKAAMDIALYQLKAKENNESLVNLLGSEKGKLTTDYTISIGSDDHMVSEAKSLVKDGFTAIKIKLGNNSVSHDIKTIQKISKAVGPDISLRIDCNQAWNYKDTLKASRIWAQDNLNIDFIEQPVLKDAISDLTLLSENSPYPIMADESVASYQDAINLIKHHACDYINIKLMKTGGLSEAIKINDLAQACGIKTMVGCMIEPVESIAAAAAFAVANKNVKFIDLDSIFMATQDPDLGKYLKIKNNEIILKDEGHHHHHH
MSLDEVSQKPHERLAAWLAEDMAAVNGLIRERMASKHAPRIPEVTAHLVEAGGKRLRPLLTLAAARLCGYEGPYHIHLAATVEFIHTATLLHDDVVDESHRRRGKPTANLLWDNKSSVLVGDYLFARSFQLMVETGSLRVMDILANASATISEGEVLQLTAAQDLRTTEDIYLQVVRGKTAALFAAATEVGGVVAGVPEAQVEALHAYGDALGIAFQIVDDLLDYGGVDAQIGKNTGDDFRERKLTLPVIKAVAQADAEERAFWQRVIEKGDQREGDLEQAHAIMSRHGAMEAARQDALRWVTVAREALGQLPEHPLREMLHDLADFVVERIAEGHHHHHH
MSLDKSIPVPEPSRMITGIKVHKISDVITYQGMISLTYDNNKRLTRIYSSSPLAAVNYTYKENSEVSYTYSTENSPLVEISTSLENGRSYVCKFSNRENPVTYSYDNEGYLKSCNNNGTVLEYNWESGNLSSITTTPRGTYNSDYRVSNIANDYSLDLNTLAQWIDDRENYTTVMNTFGQMAEILGKRSANILEDTYYIYDYSFRQDGRLKDMTLMGGSENIGYSFRFSYADDTEVSEGHHHHHH
MSLDLEFHGVMRFYFQDKAAGNFATKCIRVSSTATTQDVIETLAEKFRPDMRMLSSPKYSLYEVHVSGERRLDIDEKPLVVQLNWNKDDREGRFVLKNENDAIPPKAQSNGPEKQEKEGVIQNFKRTLSKKEKKEKKKREKEALRQASDKDDRPFQGEDVENSRLAAEVYKDMPETSFTRTISNPEVVMKRRRQQKLEKRMQEFRSSDGRPDSGGTLRIYADSLKPNIPYKTILLSTTDPADFAVAEALEKYGLEKENPKDYCIARVMLPPGAQHSDEKGAKEIILDDDECPLQIFREWPSDKGILVFQLKRRPPDHIPKKTKKHLEGKTPKGKERADGSGYGSTLPPEKLPYLVELSPGRRNHFAYYNYHTYEDGSDSRDKPKLYRLQLSVTEVGTEKLDDNSIQLFGPGIQPHHCDLTNMDGVVTVTPRSMDAETYVEGQRISETTMLQSGMKVQFGASHVFKFVDPSQDHALAKRSVDGGLMVKGPRHKPGIVQETTFDLGGDIHSGTALPTSKSTTRLDSDRVSSASSTAERGMVKPMIRVEQQPDYRRQESRTQDASGPELILPASIEFRESSEDSFLSAIINYTNSSTVHFKLSPTYVLYMACRYVLSNQYRPDISPTERTHKVIAVVNKMVSMMEGVIQKQKNIAGALAFWMANASELLNFIKQDRDLSRITLDAQDVLAHLVQMAFKYLVHCLQSELNNYMPAFLDDPEENSLQRPKIDDVLHTLTGAMSLLRRCRVNAALTIQLFSQLFHFINMWLFNRLVTDPDSGLCSHYWGAIIRQQLGHIEAWAEKQGLELAADCHLSRIVQATTLLTMDKYAPDDIPNINSTCFKLNSLQLQALLQNYHCAPDEPFIPTDLIENVVTVAENTADELARSDGREVQLEEDPDLQLPFLLPEDGYSCDVVRNIPNGLQEFLDPLCQRGFCRLIPHTRSPGTWTIYFEGADYESHLLREGHHHHHH
